This data set in a line: total protein half-life in vivo (active degradation + dilution); higher = more stable protein.
[1] abbreviates: E. coli NCM3722 delta-clpP delta-lon delta-hslV, growth: N-lim chemostat, doubling time 6 h.
Setting [2] is: E. coli NCM3722 delta-hslV, growth: N-lim chemostat, doubling time 6 h.
The mark [3] stands for this setting: E. coli NCM3722 delta-lon, growth: N-lim chemostat, doubling time 6 h.
Where [4] appears, read: E. coli NCM3722 delta-smpB, growth: N-lim chemostat, doubling time 6 h.
Setting [5] is: wild type E. coli NCM3722, growth: C-lim chemostat, doubling time 3 h.
Where [6] appears, read: wild type E. coli NCM3722, growth: C-lim chemostat, doubling time 6 h.
Where [7] appears, read: wild type E. coli NCM3722, growth: C-lim chemostat, doubling time 12 h.
[8] abbreviates: wild type E. coli NCM3722, growth: N-lim chemostat, doubling time 6 h.
Setting [9] is: wild type E. coli NCM3722, growth: N-lim chemostat, doubling time 12 h.
[10] abbreviates: wild type E. coli NCM3722, growth: P-lim chemostat, doubling time 6 h.
[11] abbreviates: wild type E. coli NCM3722, growth: P-lim chemostat, doubling time 12 h.
The mark [12] stands for this setting: E. coli NCM3722 delta-clpP, growth: N-lim chemostat, doubling time 6 h.

± gives the standard deviation of the averaged measurements.

Regarding “MSQFFYIHPDNPQQRLINQAVEIVRKGGVIVYPTDSGYALGCKIEDKNAMERICRIRQLPDGHNFTLMCRDLSELSTYSFVDNVAFRLMKNNTPGNYTFILKGTKEVPRRLLQEKRKTIGMRVPSNPIAQALLEALGEPMLSTSLMLPGSEFTESDPEEIKDRLEKQVDLIIHGGYLGQKPTTVIDLTDDTPVVVREGVGDVKPFL [P0AFR4]”, the “total protein half-life in vivo” value is, setting by setting: under setting [1], 5.38 ± 0.1 h; under setting [2], 6.202 ± 0.062 h; under setting [3], 6.96 ± 1.2 h; under setting [4], 6.51 ± 0.8 h; under setting [5], 3.1 ± 0.11 h; under setting [6], 6.18 ± 1.4 h. In addition, the “total protein half-life in vivo” value reads like this: under setting [7], 12.2 ± 1.1 h; under setting [8], 5.38 ± 0.017 h; under setting [9], 14.4 ± 1.2 h; under setting [10], 4.64 ± 0.17 h; under setting [11], 12.9 ± 1.6 h.
In the case of “MSIKTIKYFSTIIVAVVAVLAGWWLWNYYMQSPWTRDGKIRAEQVSITPQVSGRIVELNIKDNQLVNAGDLLLTIDKTPFQIAELNAQAQLAKAQSDLAKANNEANRRRHLSQNFISAEELDTANLNVKAMQASVDAAQATLKQAQWQLAQTEIRAPVSGWVTNLTTRIGDYADTGKPLFALVDSHSFYVIGYFEETKLRHIREGAPAQITLYSDNKTLQGHVSSIGRAIYDQSVESDSSLIPDVKPNVPWVRLAQRVPVRFALDKVPGDVTLVSGTTCSIAVGQ”, the “total protein half-life in vivo” value turned out to be 6.427 ± 0.064 h under setting [1]; 4.89 ± 0.55 h under setting [12]; 6.39 ± 0.71 h under setting [2]; 6.46 ± 0.5 h under setting [3]; 5.645 ± 0.01 h under setting [4]; 3.43 ± 0.24 h under setting [5]. Also, the “total protein half-life in vivo” value runs as follows: under setting [6], 6.64 ± 0.59 h; under setting [7], 11.2 ± 1.9 h; under setting [8], 6.093 ± 0.06 h; under setting [9], 14.4 ± 1.4 h; under setting [10], 6.58 ± 0.25 h; under setting [11], 12.5 ± 0.34 h.
As for “MTQPVLDIQQLHLSFPGFNGDVHALNNVSLQINRGEIVGLVGESGSGKSVTAMLIMRLLPTGSYCVHRGQISLLGEDVLNAREKQLRQWRGARVAMIFQEPMTALNPTRRIGLQMMDVIRHHQPISRREARAKAIDLLEEMQIPDAVEVMSRYPFELSGGMRQRVMIALAFSCEPQLIIADEPTTALDVTVQLQVLRLLKHKARASGTAVLFISHDMAVVSQLCDSVYVMYAGSVIESGVTADVIHHPRHPYTIGLLQCAPEHGVPRQLLPAIPGTVPNLTHLPDGCAFRDRCYAAGAQCENVPALTACGDNNQRCACWYPQQEVISV”, the “total protein half-life in vivo” value is 6.47 ± 1.1 h under setting [1]; 3.49 ± 0.17 h under setting [12]; 4.03 ± 0.098 h under setting [2]; 2.24 h under setting [3]; 4.53 ± 0.11 h under setting [4]; 2.28 ± 0.3 h under setting [5]. The “total protein half-life in vivo” value by setting is: under setting [6], 3.41 ± 0.54 h; under setting [8], 4.02 ± 0.26 h; under setting [9], 7.62 ± 0.58 h.
As to “MQTEHVILLNAQGVPTGTLEKYAAHTADTRLHLAFSSWLFNAKGQLLVTRRALSKKAWPGVWTNSVCGHPQLGESNEDAVIRRCRYELGVEITPPESIYPDFRYRATDPSGIVENEVCPVFAARTTSALQINDDEVMDYQWCDLADVLHGIDATPWAFSPWMVMQATNREARKRLSAFTQLK”, the “total protein half-life in vivo” value was 4.63 ± 0.67 h under setting [1]; 4.86 ± 0.81 h under setting [12]; 4.79 ± 0.39 h under setting [2]; 4.68 ± 0.56 h under setting [3]; 4.42 ± 0.16 h under setting [4]; 3.09 ± 0.08 h under setting [5]. The “total protein half-life in vivo” value under setting [6] was found to be 6.016 ± 0.044 h; the “total protein half-life in vivo” value under setting [7] is 8.96 ± 0.18 h; the “total protein half-life in vivo” value under setting [8] amounted to 4.39 h; the “total protein half-life in vivo” value under setting [9] is 7.89 h; the “total protein half-life in vivo” value under setting [10] came to 5.61 h; the “total protein half-life in vivo” value under setting [11] amounted to 13.1 ± 1.7 h.
On to “MMQHQVNVSARFNPETLERVLRVVRHRGFHVCSMNMAAASDAQNINIELTVASPRSVDLLFSQLNKLVDVAHVAICQSTTTSQQIRA [P0ADG1]”, for which the “total protein half-life in vivo” value under setting [12] turned out to be 0.96 h; the “total protein half-life in vivo” value under setting [3] stood at 0.664 h; the “total protein half-life in vivo” value under setting [5] is 0.829 ± 0.59 h; the “total protein half-life in vivo” value under setting [6] was determined as 0.318 h; the “total protein half-life in vivo” value under setting [7] was found to be 0.533 h; the “total protein half-life in vivo” value under setting [8] is 0.823 h. The “total protein half-life in vivo” value was determined as 0.848 ± 0.14 h under setting [9], 0.343 h under setting [10] and 0.967 ± 0.53 h under setting [11].
As for “MKCKRLNEVIELLQPAWQKEPDLNLLQFLQKLAKESGFDGELADLTDDILIYHLKMRDSAKDAVIPGLQKDYEEDFKTALLRARGVIKE [P0ADP9]”, the “total protein half-life in vivo” value was 6.97 ± 1.2 h under setting [1]; 4.97 ± 0.93 h under setting [12]; 3.81 ± 0.33 h under setting [2]; 3.98 ± 0.12 h under setting [3]; 3.12 ± 0.3 h under setting [4]; 4.76 ± 0.47 h under setting [6]. Also, the “total protein half-life in vivo” value reads like this: under setting [7], 7.3 ± 1.9 h; under setting [8], 2.74 ± 0.051 h; under setting [9], 8.19 ± 5.8 h; under setting [10], 5.01 ± 1.1 h; under setting [11], 11.2 ± 0.38 h.
As for “MTEMAKGSVTHQRLIALLSQEGADFRVVTHEAVGKCEAVSEIRGTALGQGAKALVCKVKGNGVNQHVLAILAADQQADLSQLASHIGGLRASLASPAEVDELTGCVFGAIPPFSFHPKLKLVADPLLFERFDEIAFNAGMLDKSVILKTADYLRIAQPELVNFRRTA”, the “total protein half-life in vivo” value amounted to 5.051 ± 0.048 h under setting [1]; 7.68 h under setting [12]; 3.84 ± 0.28 h under setting [2]; 5.17 ± 0.12 h under setting [3]; 3.6 ± 0.12 h under setting [4]; 3.19 ± 0.52 h under setting [5]. The “total protein half-life in vivo” value under setting [6] is 4.895 ± 0.03 h; the “total protein half-life in vivo” value under setting [7] came to 8.13 ± 0.88 h; the “total protein half-life in vivo” value under setting [8] was found to be 3.564 ± 0.0078 h; the “total protein half-life in vivo” value under setting [9] was found to be 5.88 ± 0.3 h; the “total protein half-life in vivo” value under setting [10] is 4.71 ± 0.58 h; the “total protein half-life in vivo” value under setting [11] is 8.83 ± 0.85 h.

These data come from the supplement of paper PMC11246515.
